Assay [1] addresses Short NRP2A peptide (biotinylated) (human, biotin-conjugated, site not stated). The assay is described as follows: BLI, peptide on sensor.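 Also: octet RED96e biolayer interferometry with biotin-conjugated NRP2 peptides spanning isoform-specific regions (human and mouse) loaded on biosensors, antibodies applied at 50 nM, association read over 300 s.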 In general terms: In BLI a coated tip is dipped into the sample, and binding shifts an interference pattern.
For assay [2], the target named is T1, NRP2a_scan 1 peptide (biotinylated) (human, also: biotin-conjugated, site not given here).
T1 peptide: VDIPEIHEREGY
The assay is described as follows: BLI, peptide on sensor.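 Also: octet RED96e biolayer interferometry with biotin-conjugated NRP2 peptides spanning isoform-specific regions (human and mouse) loaded on biosensors, antibodies applied at 50 nM, association read over 300 s.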

Assay [3] concerns the target T2, NRP2a_scan 2 peptide (biotinylated) (human, also: biotin-conjugated, site not given here).
T2 peptide: PEIHEREGYEDE
The assay is described as follows: BLI, peptide on sensor.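 Also: octet RED96e biolayer interferometry with biotin-conjugated NRP2 peptides spanning isoform-specific regions (human and mouse) loaded on biosensors, antibodies applied at 50 nM, association read over 300 s.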

Assay [4] deals with T3, NRP2a_scan 3 peptide (biotinylated) (human, also: biotin-conjugated, site not given here).
T3 peptide: HEREGYEDEIDD
Put plainly: BLI, peptide on sensor.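 Also: octet RED96e biolayer interferometry with biotin-conjugated NRP2 peptides spanning isoform-specific regions (human and mouse) loaded on biosensors, antibodies applied at 50 nM, association read over 300 s.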

Assay [5] concerns the target T4, NRP2a_scan 4 peptide (biotinylated) (human, also: biotin-conjugated, site not given here).
T4 peptide: EGYEDEIDDEYE
The assay is described as follows: BLI, peptide on sensor.

Assay [6] concerns the target T5, NRP2a_scan 5 peptide (biotinylated) (human, also: biotin-conjugated, site not given here).
T5 peptide: EDEIDDEYEVDW
The assay is described as follows: BLI, peptide on sensor.

In assay [7] the target is T6, NRP2a_scan 6 peptide (biotinylated) (human, also: biotin-conjugated, site not given here).
T6 peptide: IDDEYEVDWSNS
The assay is described as follows: BLI, peptide on sensor.

For assay [8], the target named is T7, NRP2a_scan 7 peptide (biotinylated) (human, also: biotin-conjugated, site not given here).
T7 peptide: EYEVDWSNSSSA
Put plainly: BLI, peptide on sensor.

The target in assay [9] is T8, Mid-NRP2A peptide (biotinylated) (human, biotin-conjugated, site not stated).
T8 peptide: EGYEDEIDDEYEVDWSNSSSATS
Put plainly: BLI, peptide on sensor.

Assay [10] has as its target T9, Mid-mNRP2A peptide (biotinylated) (mouse, biotin-conjugated, site not stated).
T9 peptide: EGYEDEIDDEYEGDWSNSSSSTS
The assay is described as follows: BLI, peptide on sensor.

Assay [11] concerns the target T10, mNRP2A peptide (biotinylated) (mouse, biotin-conjugated, site not stated).
T10 construct: also called mouse NRP2 isoform a peptide
The assay is described as follows: BLI, peptide on sensor, 50 nM antibody.

Assay [12] concerns the target T11, mNRP2b peptide (biotinylated) (mouse, biotin-conjugated, site not stated). The assay is described as follows: BLI, peptide on sensor, 50 nM antibody.
In assay [13] the target is T12, NRP2A peptide (biotinylated) (human, biotin-conjugated, site not stated).
T12 construct: also called NPR2A; NRP2a specific peptide
Put plainly: BLI, isoform peptide on sensor, 50 nM antibody.

Assay [14] deals with T13, human NRP2a v2 expressed on Expi293F cells (human, UniProt O60462 23-931).
T13 construct: cDNA Origene RCC220706; also called NRP2 v2
The assay is described as follows: flow cytometry, Expi293F cells transfected with the target, fluorescent anti-mouse secondary; MFI signal relative to mock-transfected cells.
Experimental: (§1) Signal to noise was calculated as the staining intensity of transfected cells compared to an un-transfected ‘mock’ population.

For assay [15], the target named is T14, NRP2v3.
T14 construct: not the NanoLuc-tagged construct m33; also called human NRP2 v3 expressed on Expi293F cells; NRP2a v3
T14 chain: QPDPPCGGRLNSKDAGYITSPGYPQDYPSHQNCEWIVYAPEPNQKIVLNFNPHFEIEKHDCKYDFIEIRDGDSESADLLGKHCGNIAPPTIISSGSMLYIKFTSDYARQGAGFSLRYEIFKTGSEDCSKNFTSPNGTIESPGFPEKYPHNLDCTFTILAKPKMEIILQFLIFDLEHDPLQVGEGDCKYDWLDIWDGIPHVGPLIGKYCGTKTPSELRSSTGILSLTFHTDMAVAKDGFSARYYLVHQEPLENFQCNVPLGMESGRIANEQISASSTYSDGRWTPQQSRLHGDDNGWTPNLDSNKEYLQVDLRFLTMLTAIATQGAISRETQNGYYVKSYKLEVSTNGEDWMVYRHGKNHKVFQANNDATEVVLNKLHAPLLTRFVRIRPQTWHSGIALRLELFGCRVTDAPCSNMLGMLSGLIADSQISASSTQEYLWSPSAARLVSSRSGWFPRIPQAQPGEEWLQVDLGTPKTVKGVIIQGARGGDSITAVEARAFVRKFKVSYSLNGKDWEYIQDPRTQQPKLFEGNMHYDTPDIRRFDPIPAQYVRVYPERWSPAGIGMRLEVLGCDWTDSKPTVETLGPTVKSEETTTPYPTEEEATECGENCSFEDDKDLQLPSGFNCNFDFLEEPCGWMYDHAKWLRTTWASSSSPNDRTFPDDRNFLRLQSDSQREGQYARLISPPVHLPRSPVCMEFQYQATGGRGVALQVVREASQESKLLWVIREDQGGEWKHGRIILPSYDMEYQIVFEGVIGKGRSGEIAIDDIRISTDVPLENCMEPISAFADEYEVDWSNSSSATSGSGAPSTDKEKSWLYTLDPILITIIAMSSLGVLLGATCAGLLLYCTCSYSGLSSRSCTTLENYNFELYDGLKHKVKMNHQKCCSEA
The assay is described as above.
Experimental: as §1

Assay [16] deals with T15, NRP2b peptide (biotinylated) (human, biotin-conjugated, site not stated).
T15 construct: also called NRP2b isoform specific peptide
T15 peptide: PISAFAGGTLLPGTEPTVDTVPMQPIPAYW
Put plainly: peptide ELISA. On the technique in general: ELISA stands for enzyme-linked immunosorbent assay.

Assay [17] has as its target T11, mNRP2b peptide (biotinylated). The assay is described as follows: BLI, peptide on sensor.
For assay [18], the target named is T5, NRP2a_scan 5 peptide (biotinylated). Put plainly: BLI, peptide on sensor, 50 nM antibody.
Assay [19] has as its target T6, NRP2a_scan 6 peptide (biotinylated). The assay is described as follows: BLI, peptide on sensor, 50 nM antibody.
Assay [20] addresses T8, Mid-NRP2A peptide (biotinylated). The assay is described as follows: BLI, peptide on sensor, 50 nM antibody.
Assay [21] concerns the target T16, Human NRP2a v2 (926aa) in pBiT2.1-C with C-terminal split NanoLuc tag, expressed in Expi293 cells (human, UniProt O60462 23-931).
T16 construct: cDNA Origene RCC220706, isoform 2; also called pBiT2.1-C-NRP2v2 (isoform 2); NRP2 v2; not shown: vector-encoded spacer and small split NanoLuc fragment (pBiT2.1-C)
Put plainly: CCL21-induced NRP2a/CCR7 receptor dimerization (NanoBiT, Example 7); mark beside the epitope box.

Assay [22] concerns the target T17, human NRP2b expressed on Expi293F cells (human).
T17 construct: also called full length NRP2b
T17 chain: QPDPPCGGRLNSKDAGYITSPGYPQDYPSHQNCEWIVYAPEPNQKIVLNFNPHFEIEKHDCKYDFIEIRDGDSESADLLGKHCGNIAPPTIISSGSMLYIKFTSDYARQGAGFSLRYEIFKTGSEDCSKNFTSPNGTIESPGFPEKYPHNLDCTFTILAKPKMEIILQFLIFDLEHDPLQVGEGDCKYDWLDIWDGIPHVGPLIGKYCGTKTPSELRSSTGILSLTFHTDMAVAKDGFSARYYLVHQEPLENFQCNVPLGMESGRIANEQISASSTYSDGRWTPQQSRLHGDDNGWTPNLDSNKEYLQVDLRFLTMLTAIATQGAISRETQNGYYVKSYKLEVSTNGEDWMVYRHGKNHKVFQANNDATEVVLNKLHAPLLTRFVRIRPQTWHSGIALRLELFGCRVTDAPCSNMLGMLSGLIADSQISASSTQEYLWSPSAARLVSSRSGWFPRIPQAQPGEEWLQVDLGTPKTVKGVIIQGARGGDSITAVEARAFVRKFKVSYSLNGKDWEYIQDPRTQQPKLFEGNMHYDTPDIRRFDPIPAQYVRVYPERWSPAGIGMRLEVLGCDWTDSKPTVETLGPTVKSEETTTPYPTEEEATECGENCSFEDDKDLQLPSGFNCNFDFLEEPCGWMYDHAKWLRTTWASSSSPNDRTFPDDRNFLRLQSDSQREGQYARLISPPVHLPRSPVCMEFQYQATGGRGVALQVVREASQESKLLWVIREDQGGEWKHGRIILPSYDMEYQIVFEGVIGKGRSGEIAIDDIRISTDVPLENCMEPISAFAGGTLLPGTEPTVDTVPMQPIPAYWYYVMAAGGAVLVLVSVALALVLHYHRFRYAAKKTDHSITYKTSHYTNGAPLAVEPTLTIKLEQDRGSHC
Put plainly: flow cytometry, Expi293F cells transfected with the target, fluorescent anti-mouse secondary; MFI signal relative to mock-transfected cells. Background: A flow cytometer gives signals particle by particle.
Experimental: as §1

Ends that are not written are not given here.

T11 sequence (peptide, as listed by the source): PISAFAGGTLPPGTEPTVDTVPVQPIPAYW

B1: aNRP2-406v2 (antibody, V domains shown)
VH: EVQLQQSGPELVKPGASVKISCKASGYSFTGYFMNWVKQSHGKSLEWIGRINPYNGDTFYNQKFKGKATLTVDKSSSTAHMALLSLTSEDSAVYYCGREVAEVPFDYWGQGTTLTVSS
VL: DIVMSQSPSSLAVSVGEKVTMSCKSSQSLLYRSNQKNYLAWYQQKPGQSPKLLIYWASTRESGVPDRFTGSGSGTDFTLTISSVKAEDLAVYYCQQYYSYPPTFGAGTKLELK
notes: Mouse monoclonal
As to B1, the binding result in assay [1], in assay [2], in assay [3], in assay [4], in assay [5] and in assay [6] was “no binding (tested: 50 nM)” each time. The binding result in [7] is “no binding (tested: 50 nM)”; in assay [8], “no binding (tested: 50 nM)”; in [9], “no binding (tested: 50 nM)”; in assay [10], “no binding (tested: 50 nM)”; in assay [11], “binds”; in [12], “binds”. The binding result in assay [13], in assay [14] and in assay [15] was “binds” each time.

B2: aNRP2-403v2 (antibody, V domains shown)
VH: QVQLQQPGAELVKPGASVKLSCKASGYTFTSYWMHWVKQRPGRGLEWIGRIDPNSGDTKYNEKFKSKATLTVDKPSSTAYMQVSSLTSEDSAVYYCARSYDYALEYWGQGTSVTVSS
VL: DVVMTQTPLSLPVSLGDQASISCRSSQSLVHSNGNTYLHWFLQKPGQSPNLLIYKVSNRFSGVPDRFSGSGSGTDFTLKISRVEAEDLGVYFCSQNTRVPRTFGGGTKLEIK
notes: Mouse monoclonal
B2: the binding result was “no binding (tested: <3x blank)” in [16]; “no binding (tested: 50 nM)” in assay [1]; “no binding (tested: 50 nM)” in assay [2]; “no binding (tested: 50 nM)” in assay [3]; “no binding (tested: 50 nM)” in assay [4]; “no binding (tested: 50 nM)” in assay [5]. Also, the binding result in assay [8] is recorded as “no binding (tested: 50 nM)”; in [17] it was “no binding (tested: 50 nM)”; in assay [18] it was “binds”; in assay [19] it was “binds”; in [20] it was “binds”; in [13], “binds”.

B3: aNRP2-402v2 (antibody, V domains shown)
VH: EVQLVESGGDLVKPGGSLKLSCAASGFTFSNYAMSWVRQTPEKRLEWVASISDGGSYTYYPDNVKGRFTISRDSAKKSLYLQMSHLKSEDTAMYYCTKDGGPREGYFDVWGTGTTVTVSS
VL: DVLMTQTPLSLPVSLGDQASISCRSSQSIVHSNGNTYLEWYLQKPGQSPKLLIYKVSNRFSGVPDRFSGSGSGTDFTLKISRVEAEDLGVYYCFQGSHVPYTFGGGTKLEIK
notes: Mouse monoclonal
For B3, the binding result is “no binding (tested: <3x blank)” in [16]; “no binding (tested: 50 nM)” in [1]; “no binding (tested: 50 nM)” in assay [2]; “no binding (tested: 50 nM)” in [3]; “no binding (tested: 50 nM)” in assay [4]; “no binding (tested: 50 nM)” in assay [5]. The binding result in assay [8] is “no binding (tested: 50 nM)”; in assay [18], “binds”; in assay [19] it was “binds”; in assay [20] it was “binds”; in assay [11], “binds”; in [13], “binds”. Besides, the binding result in assay [22] is on record as “no binding”; in assay [15], “binds”. In addition, in [21], the blocks receptor dimerization is less than 50%.

Values taken from patent publication US20240417476A1 (ATYR PHARMA, published 2024).
